Data as given in patent US20210340207A1 (Merck Sharp & Dohme, published 2021).
Changes are numbered by the printed parent chain. Names may count otherwise. Values belong to the binder of their own block, whether it stands above or below them.

Key:
[1] = target: T1, Human IL-2Rβ (Table 7B) (human, UniProt P14784 27-239, limits assumed); assay: SPR (Biacore T200)
T1 sequence (looked up): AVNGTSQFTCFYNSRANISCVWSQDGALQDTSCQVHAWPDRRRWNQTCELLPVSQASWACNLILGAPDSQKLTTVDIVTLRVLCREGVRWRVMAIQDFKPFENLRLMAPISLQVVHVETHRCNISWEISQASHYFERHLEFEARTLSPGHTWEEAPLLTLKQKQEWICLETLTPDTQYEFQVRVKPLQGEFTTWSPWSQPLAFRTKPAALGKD

[2] = target: T2, mouse IL-2Rαβγc (on CTLL2-STAT5 reporter cells) (mouse, UniProt P01590 22-268; P16297 27-539; P34902 23-369); assay: cell-based or functional assay
T2 sequence (looked up) 1: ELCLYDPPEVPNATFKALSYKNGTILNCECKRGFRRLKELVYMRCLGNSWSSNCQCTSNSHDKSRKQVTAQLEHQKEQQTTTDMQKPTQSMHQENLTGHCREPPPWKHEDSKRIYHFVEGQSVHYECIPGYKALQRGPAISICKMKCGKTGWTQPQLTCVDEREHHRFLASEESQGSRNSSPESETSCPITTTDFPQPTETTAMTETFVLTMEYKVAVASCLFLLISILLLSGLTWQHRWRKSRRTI
T2 sequence (looked up) 2: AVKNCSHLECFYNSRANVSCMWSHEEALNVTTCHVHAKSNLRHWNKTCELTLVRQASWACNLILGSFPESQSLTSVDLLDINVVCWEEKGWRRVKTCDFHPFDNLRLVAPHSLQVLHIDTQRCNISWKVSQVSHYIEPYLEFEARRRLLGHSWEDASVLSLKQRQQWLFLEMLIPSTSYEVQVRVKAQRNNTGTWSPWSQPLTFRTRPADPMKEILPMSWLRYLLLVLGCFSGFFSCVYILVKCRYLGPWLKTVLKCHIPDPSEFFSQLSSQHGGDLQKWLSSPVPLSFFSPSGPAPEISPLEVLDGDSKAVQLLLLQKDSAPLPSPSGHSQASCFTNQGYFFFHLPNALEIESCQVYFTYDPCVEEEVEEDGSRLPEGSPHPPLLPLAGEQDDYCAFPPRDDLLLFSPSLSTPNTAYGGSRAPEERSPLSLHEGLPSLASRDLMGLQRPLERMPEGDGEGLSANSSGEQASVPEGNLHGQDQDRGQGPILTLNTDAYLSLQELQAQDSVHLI
T2 sequence (looked up) 3: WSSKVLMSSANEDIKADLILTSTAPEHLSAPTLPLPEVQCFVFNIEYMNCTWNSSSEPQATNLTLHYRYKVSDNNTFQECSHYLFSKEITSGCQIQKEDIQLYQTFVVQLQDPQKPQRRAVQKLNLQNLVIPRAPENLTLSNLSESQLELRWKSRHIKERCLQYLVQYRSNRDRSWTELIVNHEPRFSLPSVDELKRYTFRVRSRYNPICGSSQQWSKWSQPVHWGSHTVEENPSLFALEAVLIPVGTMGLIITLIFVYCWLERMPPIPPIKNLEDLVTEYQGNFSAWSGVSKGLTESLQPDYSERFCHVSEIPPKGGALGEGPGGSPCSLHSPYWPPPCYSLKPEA

[3] = target: T3, human IL-2Rαβγc (on Kit225-STAT5 reporter cells, NK-92 cells, primary Treg cells) (human, UniProt P01589 22-272; P14784 27-551; P31785 23-369); assay: cell-based or functional assay
T3 sequence (looked up) 1: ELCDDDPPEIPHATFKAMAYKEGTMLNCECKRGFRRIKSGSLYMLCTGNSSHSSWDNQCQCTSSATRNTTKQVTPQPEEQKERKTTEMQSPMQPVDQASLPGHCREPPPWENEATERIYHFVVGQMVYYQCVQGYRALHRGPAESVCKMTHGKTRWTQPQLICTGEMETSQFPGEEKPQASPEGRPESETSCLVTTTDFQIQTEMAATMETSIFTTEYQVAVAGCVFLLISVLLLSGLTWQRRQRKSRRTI
T3 sequence (looked up) 2: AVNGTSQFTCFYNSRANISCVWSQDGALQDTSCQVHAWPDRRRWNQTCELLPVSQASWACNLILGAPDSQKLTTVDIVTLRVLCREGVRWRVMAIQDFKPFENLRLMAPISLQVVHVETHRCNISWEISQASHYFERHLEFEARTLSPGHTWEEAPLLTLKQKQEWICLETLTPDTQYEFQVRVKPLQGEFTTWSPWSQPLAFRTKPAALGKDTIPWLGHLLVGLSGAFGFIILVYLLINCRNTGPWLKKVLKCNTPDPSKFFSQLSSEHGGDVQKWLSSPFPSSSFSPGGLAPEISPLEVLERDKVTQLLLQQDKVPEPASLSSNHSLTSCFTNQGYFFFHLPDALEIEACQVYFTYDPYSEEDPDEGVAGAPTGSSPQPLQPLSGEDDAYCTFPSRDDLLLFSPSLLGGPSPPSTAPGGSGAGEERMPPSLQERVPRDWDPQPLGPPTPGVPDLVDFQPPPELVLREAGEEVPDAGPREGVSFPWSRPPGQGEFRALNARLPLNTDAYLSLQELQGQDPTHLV
T3 sequence (looked up) 3: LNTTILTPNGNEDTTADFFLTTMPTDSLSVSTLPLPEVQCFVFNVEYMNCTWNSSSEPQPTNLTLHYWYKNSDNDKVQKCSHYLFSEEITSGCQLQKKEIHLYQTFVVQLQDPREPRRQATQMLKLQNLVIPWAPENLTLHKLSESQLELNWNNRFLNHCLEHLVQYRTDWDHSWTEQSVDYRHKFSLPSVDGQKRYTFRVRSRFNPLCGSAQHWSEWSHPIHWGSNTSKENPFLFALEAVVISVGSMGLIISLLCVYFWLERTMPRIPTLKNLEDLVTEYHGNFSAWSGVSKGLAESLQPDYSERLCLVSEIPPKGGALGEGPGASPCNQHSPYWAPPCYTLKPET

[4] = target: T4, human IL-2Rβγc (on DERL-7 cells, U2OS IL2RB/IL2RG cells, CD25 knockout Kit225-STAT5 cells, primary CD8+ CTLs) (human, UniProt P14784 27-551; P31785 23-369); assay: cell-based or functional assay
T4 sequence (looked up) 1: T3 sequence (looked up) 2
T4 sequence (looked up) 2: T3 sequence (looked up) 3

[5] = target: T4, human IL-2Rβγc (on DERL-7 cells, U2OS …); assay: cell-based or functional assay; remark: listed apart in the source

Kd [1]: 980 nM | koff [1]: 0.32 s⁻¹ | kon [1]: 330000 M⁻¹ s⁻¹ | STAT5-CTLL2 EC50 [2]: 6.31 nM | STAT5-CTLL2 EC50 Fold Change [2]: 699 fold | NK-92 EC50 Fold Change [3]: 2.81 fold | NK-92 cell assay EC50 [3]: 0.02 nM | U2OS B/BG EC50 Fold Change [4]: 1.84 fold | U2OS B/BG bridging cell assay EC50 [4]: 0.294 nM | DERL7 EC50 Fold Change [5]: 0.65 fold | DERL7 cell assay EC50 [5]: 0.012 nM
B1: Ald-6HIS_T40D/F41K (ligand)
chain: PTSSSTKKTQLQLEHLLLDLQMILNGINNYKNPKLTRMLDKKFYMPKKATELKHLQCLEEELKPLEEVLNLAQSKNFHLRPRDLISNINVIVLELKGSETTFMCEYADETATIVEFLNRWITFSQSIISTLTGGSHHHHHH

Kd [1]: 990 nM | koff [1]: 0.36 s⁻¹ | kon [1]: 360000 M⁻¹ s⁻¹ | STAT5-CTLL2 EC50 [2]: 2.2 nM | STAT5-CTLL2 EC50 Fold Change [2]: 244 fold | NK-92 EC50 Fold Change [3]: 4.61 fold | NK-92 cell assay EC50 [3]: 0.032 nM | U2OS B/BG EC50 Fold Change [4]: 3.09 fold | U2OS B/BG bridging cell assay EC50 [4]: 0.492 nM | DERL7 EC50 Fold Change [5]: 1.55 fold | DERL7 cell assay EC50 [5]: 0.028 nM
B2: Ald-6HIS_T40D/E60T (ligand)
chain: B1 chain with K41F, E60T

Kd [1]: 1100 nM | koff [1]: 0.47 s⁻¹ | kon [1]: 440000 M⁻¹ s⁻¹ | STAT5-CTLL2 EC50 [2]: 103 nM | STAT5-CTLL2 EC50 Fold Change [2]: 11400 fold | NK-92 EC50 Fold Change [3]: 11.4 fold | NK-92 cell assay EC50 [3]: 0.079 nM | U2OS B/BG EC50 Fold Change [4]: 3.15 fold | U2OS B/BG bridging cell assay EC50 [4]: 0.502 nM | DERL7 EC50 Fold Change [5]: 2.01 fold | DERL7 cell assay EC50 [5]: 0.036 nM
B3: Ald-6HIS_F41K/E60T (ligand)
chain: B1 chain with D40T, E60T

Kd [1]: 1000 nM | koff [1]: 0.3 s⁻¹ | kon [1]: 300000 M⁻¹ s⁻¹ | STAT5-CTLL2 EC50 [2]: 11 nM | STAT5-CTLL2 EC50 Fold Change [2]: 1220 fold | NK-92 EC50 Fold Change [3]: 7.31 fold | NK-92 cell assay EC50 [3]: 0.051 nM | U2OS B/BG EC50 Fold Change [4]: 2.32 fold | U2OS B/BG bridging cell assay EC50 [4]: 0.37 nM | DERL7 EC50 Fold Change [5]: 1.18 fold | DERL7 cell assay EC50 [5]: 0.021 nM
B4: Ald-6HIS_R37A/F41K (ligand)
chain: B1 chain with R37A, D40T

Kd [1]: 770 nM | koff [1]: 0.3 s⁻¹ | kon [1]: 390000 M⁻¹ s⁻¹
B5: Ald_F41/Y44A/l71G* (ligand)
chain: B1 chain with D40T, K41A, Y44A, L71G

Kd [1]: 730 nM | koff [1]: 0.25 s⁻¹ | kon [1]: 340000 M⁻¹ s⁻¹ | STAT5-CTLL2 EC50 [2]: 0.101 nM | STAT5-CTLL2 EC50 Fold Change [2]: 11.2 fold | NK-92 EC50 Fold Change [3]: 2.06 fold | NK-92 cell assay EC50 [3]: 0.014 nM | U2OS B/BG EC50 Fold Change [4]: 2.83 fold | U2OS B/BG bridging cell assay EC50 [4]: 0.451 nM | DERL7 EC50 Fold Change [5]: 1.31 fold | DERL7 cell assay EC50 [5]: 0.023 nM
B6: Ald-6HIS_R37A/T40D (ligand)
chain: B1 chain with R37A, K41F
